Experimental data published in publication PMC7515738, “Identification and characterization of hippuristanol-resistant mutants reveals eIF4A1 dependencies within mRNA 5′ leader regions”.

Experiments:
Settings in all cases: tags: His6, single strand
eIF4A1 G370S = eIF4A1 G370S (UniProt P60842 1-406, G370S); test: fluorescence polarization; no Hipp; similar to wt; FP: 1 uM recombinant protein, FAM-poly r(AG)8, vehicle (0.1% DMSO) or Hipp, 30 min; buffer, salt, pH and temperature not given in the material
eIF4A1 G361C = eIF4A1 G361C (UniProt P60842 1-406, G361C); test: as above
eIF4A1 wt = eIF4A1 wt (UniProt P60842 1-406); test: fluorescence polarization; no Hipp; FP: 1 uM recombinant protein, FAM-poly r(AG)8, vehicle (0.1% DMSO) or Hipp, 30 min; buffer, salt, pH and temperature not given in the material

Measured: binding result

Chain of eIF4A1 G361C (P60842 whole entry G361C): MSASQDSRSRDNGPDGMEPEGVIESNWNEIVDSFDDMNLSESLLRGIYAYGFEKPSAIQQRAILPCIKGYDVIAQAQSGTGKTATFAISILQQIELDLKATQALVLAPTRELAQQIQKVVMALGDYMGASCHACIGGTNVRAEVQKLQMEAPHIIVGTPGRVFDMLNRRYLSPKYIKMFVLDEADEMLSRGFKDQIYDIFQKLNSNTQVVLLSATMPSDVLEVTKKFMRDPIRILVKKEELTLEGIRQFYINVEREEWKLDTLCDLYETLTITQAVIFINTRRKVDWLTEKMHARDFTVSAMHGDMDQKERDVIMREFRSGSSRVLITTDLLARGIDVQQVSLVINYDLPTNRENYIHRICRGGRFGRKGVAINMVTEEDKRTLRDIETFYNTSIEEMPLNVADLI
Chain of eIF4A1 G370S (P60842 whole entry G370S): as the sequence (P60842 whole entry G361C) above, with C361G, G370S counted along it
Chain of eIF4A1 wt (P60842 whole entry): as the sequence (P60842 whole entry G361C) above, with C361G counted along it

AGAGAGAGAGAGAGAG (ssRNA) [poly r(AG)8]
binds: eIF4A1 G370S | eIF4A1 G361C | eIF4A1 wt
